Patent US20250009852A1, “DEPLETING EGFR AND HER2 OVERCOMES RESISTANCE TO EGFR INHIBITORS IN COLORECTAL CANCER” (Health Research, Inc., priority 2021, published 2025)

Columns and labels:
HB-EGF = assay: Measurement of soluble HB-EGF in tumor tissues by ELISA; assay type: in vivo, mouse; details: HCT116 and HT29 tumors; aderbasib 60 mg/kg
Experimental: Concentrations of AREG and HB-EGF in tumor tissues were measured using the Human Amphiregulin/AREG ELISA Kit PicoKine and HB-EGF ELISA Kit, following the manufacturer's instruction. Briefly, 100 μl of standard or tumor tissue homogenate (cleared by centrifugation) was added to a microtiter well pre-coated with anti-human AREG or anti-human HB-EGF and incubated for 2 h at RT. After washing the plate with washing buffer, 100 μl of biotinylated anti-human AREG or biotinylated anti-human HB-EGF were added to each well and incubated for 1.5 h at RT. The microtiter wells were washed 3 times with wash buffer and incubated with 100 μl/well of avidin-biotin-peroxidase complex for 40 min at RT. The microtiter wells were washed 5 times with wash buffer and incubated with 90 µl/well color developing reagent for 30 min at RT. After adding 100 μl of stop solution to each well, absorbance at 450 nm was recorded by a Synergy 2 Multi-Mode Microplate Reader.

HT29 cells = assay: MTT cell proliferation assay; assay type: cell-based, human; details: 24, 48 or 72 h, PEPD^G278D 5-250 nM, cetuximab 2.75-275 nM, panitumumab 2.77-277 nM
Experimental: (§1) Cells were grown in 96-well plates. […] The cells were then washed with PBS and mixed with dimethyl sulfoxide (150 μl per well), and cell density was determined by measuring the reduction of MTT to formazan spectroscopically at 570 nm using a Synergy 2 Multi-Mode Microplate Reader (BioTek). In experiments involving siRNA transfection, 2×10^3 HCT116 cells or 6×10^3 HT29 cells were seeded to each well of 96-well plates overnight and then transfected 25 nM siRNA (scramble siRNA, EGFR siRNA or HER2 siRNA) as described above, followed by MTT assay.

SW48 cells = assay: MTT cell proliferation assay; assay type: cell-based, human
Experimental: as §1

SW620 cells = assay: MTT cell proliferation assay; assay type: cell-based, human; details: SW620 cells (no EGFR, no HER2); 24, 48 or 72 h
Experimental: as §1

HCT116 cells = assay: MTT cell proliferation assay; assay type: cell-based, human; details: 24, 48 or 72 h, PEPD^G278D 5-250 nM, cetuximab 2.75-275 nM, panitumumab 2.77-277 nM
Experimental: as §1

EGFR and HER2 [1] = assay: Western blotting of whole cell lysates: EGFR and HER2; assay type: cell-based, human; details: 25 nM
Experimental: (§2) To prepare whole cell lysates, cells were washed with PBS twice, mixed with 1× cell lysis buffer from Cell Signaling Technology supplemented with 2 mM PMSF and a protease inhibitor cocktail from Roche Applied Science, placed on ice for 10 min, sonicated at 0-4° C. to enhance cell lysis using a Branson Model 450 sonifier, and finally centrifuged at 13,000 g for 10 min at 4° C., and the supernatant fraction is collected as whole cell lysate. Tumor and samples were mixed with RIPA buffer (25 mM Tris-HCl, PH7.6, 150 mM NaCl, 1% Nonidet P-40, 1% sodium deoxycholate, and 0.1% SDS), which was supplemented with 2 mM PMSF, the protease inhibitor cocktail mentioned above, phosphatase inhibitor cocktail 2 and phosphatase inhibitor cocktail 3 from Sigma-Aldrich at 14.3 μl buffer per mg tissue, and homogenized in a Dounce homogenizer. The homogenates were cleared by centrifugation at 13,000 g for 15 min at 4° C.
(§3) Protein concentrations in all samples were measured using the BCA Assay Kit. For Western blotting, each sample was mixed with 4× loading dye, heated for 5 min at 95° C., and resolved by SDS-PAGE (8-12.5%). Proteins were transferred to polyvinylidene fluoride membrane, probed with specific antibodies, and detected using either Luminata Classico (Millipore) or Luminata Cresendo (Millipore). For IP, cell lysates (0.5 mg protein/sample) were incubated with a desired antibody overnight at 4° C., followed by incubation of 500 μl sample with 30 μl G-Sepharose beads (2 mg/ml) for 1 h at RT. The beads were washed three times with IP buffer, suspended in 2× SDS loading buffer, boiled for 5 min, and analyzed by Western blotting.

EGFR and HER2 [2] = biological target: T1, EGFR and HER2 (Homo sapiens, UniProt P00533); assay: as above; assay type: cell-based; details: HCT116, HT29 and SW48 cells, medium with 10% serum, 25 nM
T1 construct: Both EGFR and HER2 were expressed in HCT116, HT29, and SW48 cells; endogenous in cells; host or cells: HCT116, HT29, SW48 (SW620 lacks both)
Experimental: as §2, §3

[3] = system: EGFR-HER3, EGFR-IGF1R and EGFR-MET heterodimers; assay: Immunoprecipitation and Western blotting of EGFR heterodimers; assay type: cell-based, human; details: 25 nM, 48 h
Experimental: as §3

Molecule	soluble HB-EGF level in the tumor tissues (HB-EGF)	cell growth measured by MTT assay (HT29 cells)	growth-inhibitory potency compared with the EGFR MABs (SW48 cells)	cell growth measured by MTT assay (SW48 cells; 24, 48 or 72 h, PEPD^G278D 5-250 nM, cetuximab 2.75-275 nM, panitumumab 2.77-277 nM)	cell growth measured by MTT assay (SW620 cells)	cell growth measured by MTT assay (HCT116 cells)	HER2 level (EGFR and HER2 [1]; HCT116, HT29 and SW48 cells, medium with 10% serum, 3 h)	expression and tyrosine phosphorylation of EGFR and HER2 (EGFR and HER2 [1]; SW48, HCT116 and HT29 cells, 48 h)	EGFR and HER2 level (EGFR and HER2 [1]; serum-free medium, 3 h)	EGFR level (EGFR and HER2 [2]; 6 h)	EGFR level (EGFR and HER2 [2]; 24 h)	EGFR association with HER3, MET or IGF1R [3]
COC(=O)N1CC2(CC2)C[C@H](C(=O)NO)[C@H]1C(=O)N1CC=C(c2ccccc2)CC1 [aderbasib]	marked decrease	–	–	–	–	–	–	–	–	–	–	–
PEPD^G278D: recombinant and enzymatically inactive mutant of human peptidase D (PEPD), with replacement of glycine 278 by aspartic acid (protein, left off: small tags and cut ends) AAATGPSFWLGNETLKVPLALFALNRQRLCERLRKNPAVQAGSIVVLQGGEETQRYCTDTGVLFLQESFFHWAFGVTEPGCYGVIDVDTGKSTLFVPRLPASHATWMGKIHSKEHFKEKYAVDDVQYVDEIASVLTSQKPSVLLTLRGVNTDSGSVCREASFDGISKFEVNNTILHPEIVESRVFKTDMELEVLRYTNKISSEAHREVMKAVKVGMKEYGLESLFEHYCYSRGGMRHSSYTCICGSGENSAVLHYGHAGAPNDRTIQNGDMCLFDMDGEYYSVASDITCSFPRNGKFTADQKAVYEAVLLSSRAVMGAMKPGDWWPDIDRLADRIHLEELAHMGILSGSVDAMVQAHLGAVFMPHGLGHFLGIDVHDVGGYPEGVERIDEPGLRSLRTARHLQPGMVLTVEPGIYFIDHLLDEALADPARASFLNREVLQRFRGFGGVRIEEDVVVIDSGIELLTCVPRTVEEIEACMAGCDKAFTPFSGPK	–	strongly inhibited the growth	more potent	strongly inhibited the growth	ineffective	strongly inhibited the growth	decreased markedly	obliterated	marked decrease	no decrease	profound decrease	disruption of EGFR association
